Test results as given in PMC10588359, “14‐3‐3 protein inhibits CaMKK1 by blocking the kinase active site with its last two C‐terminal helices” (Protein Science : A Publication of the Protein Society, 2023).

B3: Human 14‐3‐3γ (residues 1–235 lacking the C‐terminal 12‐residues‐long flexible tail) (domain or fragment, UniProt P61981 1-235, looked up)
chain: MVDREQLVQKARLAEQAERYDDMAAAMKNVTELNEPLSNEERNLLSVAYKNVVGARRSSWRVISSIEQKTSADGNEKKIEMVRAYREKIEKELEAVCQDVLSLLDNYLIKNCSETQYESKVFYLKMKGDYYRYLAEVATGEKRATVVESSEKAYSEAHEISKEHMQPTHPIRLGLALNYSVFYYEIQNAPEQACHLAKTAFDDAIAELDTLNEDSYKDSTLIMQLLRDNLTLWTS
notes: human 14-3-3γ, residues 1-235, lacking the C-terminal 12 residues; Homodimer; also called 14-3-3γ dimer; source: expressed and purified as described previously (Obsilova et al., 2004)
B4: pCaMKK2: CaMKK2_(93–517) D330A phosphorylated by PKA at all four sites (domain or fragment, human, UniProt Q96RR4 93-517, looked up)
chain: HLSGRKLSLQERSQGGLAAGGSLDMNGRCICPSLPYSPVSSPQSSPRLPRRPTVESHHVSITGMQDCVQLNQYTLKDEIGKGSYGVVKLAYNENDNTYYAMKVLSKKKLIRQAGFPRRPPPRGTRPAPGGCIQPRGPIEQVYQEIAILKKLDHPNVVKLVEVLDDPNEDHLYMVFELVNQGPVMEVPTLKPLSEDQARFYFQDLIKGIEYLHYQKIIHRDIKPSNLLVGEDGHIKIAAFGVSNEFKGSDALLSNTVGTPAFMAPESLSETRKIFSGKALDVWAMGVTLYCFVFGQCPFMDERIMCLHSKIKSQALEFPDQPDIAEDLKDLITRMLDKNPESRIVVPEIKLHPWVTRHGAEPLPSEDENCTLVEVTEEEVENSVKHIPSLATVILVKTMIRKRSFGNPFEGSRREERSLSAPGNLL
modifications: phosphoserine at 100, phosphothreonine at 145, phosphoserine at 495, phosphoserine at 511 (PKA; stoichiometric by LC-MS)
notes: Same construct as m3 after PKA phosphorylation; also called phosphorylated CaMKK2; source: E. coli BL21 (DE3), purified, phosphorylated by PKA in vitro, SEC
B7: pCaMKK1: CaMKK1_(67–480) D293A phosphorylated by PKA at all four sites (domain or fragment, human, UniProt Q8N5S9 67-480, looked up)
chain: SLSARKLSLQERPAGSYLEAQAGPYATGPASHISPRAWRRPTIESHHVAISDAEDCVQLNQYKLQSEIGKGAYGVVRLAYNESEDRHYAMKVLSKKKLLKQYGFPRRPPPRGSQAAQGGPAKQLLPLERVYQEIAILKKLDHVNVVKLIEVLDDPAEDNLYLVFDLLRKGPVMEVPCDKPFSEEQARLYLRDVILGLEYLHCQKIVHRDIKPSNLLLGDDGHVKIAAFGVSNQFEGNDAQLSSTAGTPAFMAPEAISDSGQSFSGKALDVWATGVTLYCFVYGKCPFIDDFILALHRKIKNEPVVFPEEPEISEELKDLILKMLDKNPETRIGVPDIKLHPWVTKNGEEPLPSEEEHCSVVEVTEEEVKNSVRLIPSWTTVILVKSMLRKRSFGNPFEPQARREERSMSAPGNL
modifications: phosphoserine at 74, phosphothreonine at 108, phosphoserine at 458, phosphoserine at 475 (PKA; stoichiometric by LC-MS)
notes: Same construct as m1 after PKA phosphorylation; also called phosphorylated CaMKK1; source: E. coli BL21 (DE3), purified, phosphorylated by PKA in vitro, SEC

Columns and labels:
[1] = target: T1, dansyl-labeled calmodulin (DANS-CaM), Ca2+-bound (rat, UniProt P0DP29 1-149, dansyl label (dansyl chloride; site not stated)); experiment: fluorescence polarisation; as a1 but with 60 μM 14-3-3γ present: 2 μM DANS-CaM titrated with CaMKK (30 μM and binary dilution series), 1 h incubation; 10 mM HEPES-NaOH pH 7.4, 150 mM NaCl, 1 mM CaCl2, 0.1% Tween 20, 0.1% BSA; one-site-binding model; settings: both partners purified
T1 construct: rat calmodulin (CaM); The assay buffer held 1 mM CaCl2 (Ca2+/CaM); also called dansyl-Ca2+/CaM; source: prepared as described previously (Holakovska et al., 2011); labeled with dansyl chloride, SEC

[2] = target: T1, dansyl-labeled calmodulin (DANS-CaM), …; experiment: fluorescence polarisation; 2 μM DANS-CaM titrated with CaMKK (30 μM and binary dilution series), 1 h incubation; 10 mM HEPES-NaOH pH 7.4, 150 mM NaCl, 1 mM CaCl2, 0.1% Tween 20, 0.1% BSA; one-site-binding model; settings: both partners purified
[3] = target: B4; experiment: AUC; sedimentation velocity of mixtures of 0.06–6 μM pCaMKK1 or pCaMKK2 with 1.2 μM 14-3-3γ; direct modeling with the Lamm equation, Langmuir binding model, one pCaMKK on a 14-3-3γ homodimer; apparent KD; 50 mM Tris–HCl pH 7.5, 150 mM NaCl, 1 mM TCEP; 20°C; settings: both partners purified
[4] = target: B7; experiment: as above; settings: both partners purified
[5] = target: the molecule itself; experiment: SEC-SAXS; in-line SEC-SAXS on Superdex 200 Increase 5/150 GL; complexes mixed at 1:2 molar ratio (pCaMKK:14-3-3γ); 50 mM Tris–HCl pH 7.5, 150 mM NaCl, 1 mM TCEP, 3% glycerol
[6] = target: T2, Dansyl‐labeled rat calmodulin (DANS‐CaM), Ca^2+-bound (rat, UniProt P0DP29 1-149, dansyl label (dansyl chloride; site not stated)); experiment: fluorescence polarisation; 2 μM DANS-CaM titrated by 30 μM CaMKK proteins and their binary dilution series, with and without 60 μM 14-3-3γ; 10 mM HEPES–NaOH pH 7.4, 150 mM NaCl, 1 mM CaCl2, 0.1% Tween 20, 0.1% BSA; one-site-binding model; settings: both partners purified
T2 construct: rat calmodulin, labeled with dansyl chloride; Assays in 1 mM CaCl2; also called dansyl-Ca^2+/CaM; DANS-labeled CaM; source: prepared as described previously (Holakovska et al., 2011), labeled by dansyl chloride, SEC

[7] = target: B3; experiment: AUC; sedimentation velocity of mixtures of 0.06–6 μM pCaMKK1 or pCaMKK2 with 1.2 μM 14-3-3γ; direct modeling with the Lamm equation, Langmuir binding model, one pCaMKK on a 14-3-3γ homodimer; apparent KD; 50 mM Tris–HCl pH 7.5, 150 mM NaCl, 1 mM TCEP; 20°C; settings: both partners purified
[8] = target: T3, Rat calmodulin, Ca^2+-bound (Ca^2+/CaM) (rat, UniProt P0DP29 1-149); experiment: AUC; sedimentation velocity of CaMKK1 or CaMKK2 with Ca^2+/CaM (1:1 molar ratio); 50 mM Tris–HCl pH 7.5, 150 mM NaCl, 1 mM TCEP, 1 mM CaCl2; 20°C; settings: both partners purified
T3 construct: rat calmodulin; Unlabelled CaM, used with 1 mM CaCl2 in the ultracentrifuge; source: prepared as described previously (Holakovska et al., 2011)

B1: CaMKK1(67-480) D293A, unphosphorylated (domain or fragment)
chain: SLSARKLSLQERPAGSYLEAQAGPYATGPASHISPRAWRRPTIESHHVAISDAEDCVQLNQYKLQSEIGKGAYGVVRLAYNESEDRHYAMKVLSKKKLLKQYGFPRRPPPRGSQAAQGGPAKQLLPLERVYQEIAILKKLDHVNVVKLIEVLDDPAEDNLYLVFDLLRKGPVMEVPCDKPFSEEQARLYLRDVILGLEYLHCQKIVHRDIKPSNLLLGDDGHVKIAAFGVSNQFEGNDAQLSSTAGTPAFMAPEAISDSGQSFSGKALDVWATGVTLYCFVYGKCPFIDDFILALHRKIKNEPVVFPEEPEISEELKDLILKMLDKNPETRIGVPDIKLHPWVTKNGEEPLPSEEEHCSVVEVTEEEVKNSVRLIPSWTTVILVKSMLRKRSFGNPFEPQARREERSMSAPGNL
notes: source: E. coli BL21 (DE3), purified
Kd [1]: 630 ± 70 nM | Kd [2]: 600 ± 110 nM

B2: pCaMKK1: CaMKK1(67-480) D293A phosphorylated by PKA at four sites (domain or fragment)
chain: SLSARKLSLQERPAGSYLEAQAGPYATGPASHISPRAWRRPTIESHHVAISDAEDCVQLNQYKLQSEIGKGAYGVVRLAYNESEDRHYAMKVLSKKKLLKQYGFPRRPPPRGSQAAQGGPAKQLLPLERVYQEIAILKKLDHVNVVKLIEVLDDPAEDNLYLVFDLLRKGPVMEVPCDKPFSEEQARLYLRDVILGLEYLHCQKIVHRDIKPSNLLLGDDGHVKIAAFGVSNQFEGNDAQLSSTAGTPAFMAPEAISDSGQSFSGKALDVWATGVTLYCFVYGKCPFIDDFILALHRKIKNEPVVFPEEPEISEELKDLILKMLDKNPETRIGVPDIKLHPWVTKNGEEPLPSEEEHCSVVEVTEEEVKNSVRLIPSWTTVILVKSMLRKRSFGNPFEPQARREERSMSAPGNL
modifications: phosphoserine at 74, phosphothreonine at 108, phosphoserine at 458, phosphoserine at 475
notes: also called 4xPhosphorylated CaMKK1; source: E. coli BL21 (DE3), purified; phosphorylated with PKA, then SEC
Kd [2]: 2160 ± 300 nM

B3
Kd [3]: 60 ± 15 nM | Kd [4]: 21 ± 3 nM | stoichiometry N [5]: 2

B4
binding result [6]: binds | stoichiometry N [7]: 2 14-3-3γ protomers per pCaMKK

B5: CaMKK1_(67–480) D293A, unphosphorylated (domain or fragment)
chain: SLSARKLSLQERPAGSYLEAQAGPYATGPASHISPRAWRRPTIESHHVAISDAEDCVQLNQYKLQSEIGKGAYGVVRLAYNESEDRHYAMKVLSKKKLLKQYGFPRRPPPRGSQAAQGGPAKQLLPLERVYQEIAILKKLDHVNVVKLIEVLDDPAEDNLYLVFDLLRKGPVMEVPCDKPFSEEQARLYLRDVILGLEYLHCQKIVHRDIKPSNLLLGDDGHVKIAAFGVSNQFEGNDAQLSSTAGTPAFMAPEAISDSGQSFSGKALDVWATGVTLYCFVYGKCPFIDDFILALHRKIKNEPVVFPEEPEISEELKDLILKMLDKNPETRIGVPDIKLHPWVTKNGEEPLPSEEEHCSVVEVTEEEVKNSVRLIPSWTTVILVKSMLRKRSFGNPFEPQARREERSMSAPGNL
notes: Cloned into pRSFDuet-1; purification as in Psenakova et al., 2018; also called Ca^2+/CaM-dependent protein kinase kinase 1; Not-P CaMKK1; source: E. coli BL21 (DE3), purified
stoichiometry N [8]: 1

B6: CaMKK2_(93–517) D330A, unphosphorylated (domain or fragment)
chain: HLSGRKLSLQERSQGGLAAGGSLDMNGRCICPSLPYSPVSSPQSSPRLPRRPTVESHHVSITGMQDCVQLNQYTLKDEIGKGSYGVVKLAYNENDNTYYAMKVLSKKKLIRQAGFPRRPPPRGTRPAPGGCIQPRGPIEQVYQEIAILKKLDHPNVVKLVEVLDDPNEDHLYMVFELVNQGPVMEVPTLKPLSEDQARFYFQDLIKGIEYLHYQKIIHRDIKPSNLLVGEDGHIKIAAFGVSNEFKGSDALLSNTVGTPAFMAPESLSETRKIFSGKALDVWAMGVTLYCFVFGQCPFMDERIMCLHSKIKSQALEFPDQPDIAEDLKDLITRMLDKNPESRIVVPEIKLHPWVTRHGAEPLPSEDENCTLVEVTEEEVENSVKHIPSLATVILVKTMIRKRSFGNPFEGSRREERSLSAPGNLL
notes: also called Ca^2+/CaM-dependent protein kinase kinase 2; Not-P CaMKK2; source: E. coli BL21 (DE3), purified
stoichiometry N [8]: 1

B7
stoichiometry N [7]: 2 14-3-3γ protomers per pCaMKK
